The results in this text go back to patent US20040156842A1 (ZymoGenetics, published 2004).

One may read the Kd as the equilibrium constant for the complex coming apart. A lower Kd goes with tighter binding.

Where two headings read alike, the source gives them in different places.

Experiment [1] addresses T1, GPCR73a receptor (Homo sapiens (Human), UniProt Q8TCW9 1-393). Briefly: cell-based or functional assay.
In experiment [2] the target is T1, GPCR73a receptor. Kind of experiment: cell-based or functional assay. The source holds these as a separate data set.
Experiment [3] addresses T2, GPCR73b receptor (Homo sapiens (Human), UniProt Q8NFJ6 1-384). Briefly: cell-based or functional assay.
The target in experiment [4] is T2, GPCR73b receptor. Kind of experiment: cell-based or functional assay. The source holds these as a separate data set.
The target of experiment [5] is GPCR73a receptor (Homo sapiens (Human)) (UniProt Q8TCW9). Briefly: cell-based or functional assay.
Sequence of GPCR73a receptor (Homo sapiens (Human)) (Q8TCW9 whole entry): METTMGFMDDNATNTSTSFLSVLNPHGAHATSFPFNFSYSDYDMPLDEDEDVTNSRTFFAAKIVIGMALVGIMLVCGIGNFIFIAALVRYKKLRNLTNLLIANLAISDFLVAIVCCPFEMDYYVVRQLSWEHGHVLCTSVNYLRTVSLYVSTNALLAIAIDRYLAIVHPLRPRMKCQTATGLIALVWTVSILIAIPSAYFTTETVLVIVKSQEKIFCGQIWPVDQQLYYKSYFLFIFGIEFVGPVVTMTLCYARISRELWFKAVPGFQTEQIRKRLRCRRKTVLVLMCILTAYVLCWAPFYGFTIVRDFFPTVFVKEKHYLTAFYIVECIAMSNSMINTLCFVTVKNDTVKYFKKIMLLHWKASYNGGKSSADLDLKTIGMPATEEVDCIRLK
The target in experiment [6] is Zven1 receptor on Wky12-22 cells (rat). Briefly: cell-based or functional assay.
The target is the same in experiment [7]. Briefly: saturation binding of I125-radiolabeled Zven1 to Wky12-22 cell monolayers at 4 C, two-site nonlinear regression; low affinity site.
Experiment [8] has the same target. Briefly: saturation binding of I125-radiolabeled Zven1 to Wky12-22 cell monolayers at 4 C, two-site nonlinear regression; high affinity site.
In experiment [9] the target is GPCR73b receptor (Homo sapiens (Human)) (UniProt Q8NFJ6). Briefly: cell-based or functional assay.
Sequence of GPCR73b receptor (Homo sapiens (Human)) (Q8NFJ6 whole entry): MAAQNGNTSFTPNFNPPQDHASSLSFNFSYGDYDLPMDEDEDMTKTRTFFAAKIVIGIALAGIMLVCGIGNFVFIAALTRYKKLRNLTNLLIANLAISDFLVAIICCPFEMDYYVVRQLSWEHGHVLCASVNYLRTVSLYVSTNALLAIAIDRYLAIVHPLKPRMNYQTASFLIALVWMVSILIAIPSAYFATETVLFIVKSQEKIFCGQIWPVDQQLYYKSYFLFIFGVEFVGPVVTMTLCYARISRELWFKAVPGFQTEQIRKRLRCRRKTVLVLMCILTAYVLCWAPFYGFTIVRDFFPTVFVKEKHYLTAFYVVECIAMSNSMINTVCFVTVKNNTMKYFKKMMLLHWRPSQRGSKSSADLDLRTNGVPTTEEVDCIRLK
The target of experiment [10] is GPCR73a receptor (Homo sapiens (Human)) (UniProt Q8TCW9). Kind of experiment: cell-based or functional assay. The source holds these as a separate data set.
Experiment [11] concerns the target GPCR73b receptor (Homo sapiens (Human)) (UniProt Q8NFJ6). Briefly: cell-based or functional assay. This is another data set of the same source.

T2 sequence (Q8NFJ6 whole entry): as above
T1 sequence (Q8TCW9 whole entry): as the sequence (Q8TCW9 whole entry) above

B1: Zven1 (E. coli produced) (ligand)
chain: AVITGACDKDSQCGGGMCCAVSIWVKSIRICTPMGKLGDSCHPLTRKVPFFGRRMHHTCPCLPGLACLRTSFNRFICLAQK
For B1, in experiment [1], the “SRE luciferase fold-induction at 1 ng/ml” value amounted to 1.9 fold-induction, the “SRE luciferase fold-induction at 3.2 ng/ml” value is 4 fold-induction, the “SRE luciferase fold-induction at 10 ng/ml” value is 8.4 fold-induction and the “SRE luciferase fold-induction at 32 ng/ml” value stood at 15 fold-induction. Further, in experiment [1], the “SRE luciferase fold-induction at 100 ng/ml” value turned out to be 19 fold-induction, the “SRE luciferase fold-induction at 320 ng/ml” value was 20.7 fold-induction and the “SRE luciferase fold-induction at 1000 ng/ml” value is 17.8 fold-induction. Moreover, in [2], the “SRE luciferase fold-induction at 1 ng/ml” value was determined as 4.1 fold-induction, the “SRE luciferase fold-induction at 3.2 ng/ml” value amounted to 7.6 fold-induction, the “SRE luciferase fold-induction at 10 ng/ml” value turned out to be 10.2 fold-induction and the “SRE luciferase fold-induction at 32 ng/ml” value was 14.1 fold-induction. Also, in experiment [2], the “SRE luciferase fold-induction at 100 ng/ml” value amounted to 17.6 fold-induction, the “SRE luciferase fold-induction at 320 ng/ml” value was determined as 22 fold-induction and the “SRE luciferase fold-induction at 1000 ng/ml” value came out at 13.9 fold-induction. Also, in [3], the “SRE luciferase fold-induction at 1 ng/ml” value is 0.7 fold-induction, the “SRE luciferase fold-induction at 3.2 ng/ml” value is 1.3 fold-induction, the “SRE luciferase fold-induction at 10 ng/ml” value came out at 1.9 fold-induction and the “SRE luciferase fold-induction at 32 ng/ml” value turned out to be 3 fold-induction. In experiment [3], the “SRE luciferase fold-induction at 100 ng/ml” value is 4.7 fold-induction, the “SRE luciferase fold-induction at 320 ng/ml” value worked out at 6.3 fold-induction and the “SRE luciferase fold-induction at 1000 ng/ml” value amounted to 7.1 fold-induction. In experiment [4], the “SRE luciferase fold-induction at 1 ng/ml” value was 1 fold-induction, the “SRE luciferase fold-induction at 3.2 ng/ml” value turned out to be 1.2 fold-induction, the “SRE luciferase fold-induction at 10 ng/ml” value is 1.7 fold-induction and the “SRE luciferase fold-induction at 32 ng/ml” value is 2.6 fold-induction. In [4], the “SRE luciferase fold-induction at 100 ng/ml” value turned out to be 4.4 fold-induction, the “SRE luciferase fold-induction at 320 ng/ml” value is 5.2 fold-induction and the “SRE luciferase fold-induction at 1000 ng/ml” value was found to be 4.8 fold-induction.

B2: Zven1 protein produced in baculovirus with a C-terminal Glu-Glu tag (ligand)
chain: AVITGACDKDSQCGGGMCCAVSIWVKSIRICTPMGKLGDSCHPLTRKVPFFGRRMHHTCPCLPGLACLRTSFNRFICLAQKGLEYMPMD
B2: in experiment [5], the SRE luciferase fold-induction at 1 ng/ml (fold-induction) is 2.5, the SRE luciferase fold-induction at 3.2 ng/ml (fold-induction) stood at 7.1, the SRE luciferase fold-induction at 10 ng/ml (fold-induction) was found to be 13.1 and the SRE luciferase fold-induction at 32 ng/ml (fold-induction) came to 18.7. Moreover, the SRE luciferase fold-induction at 100 ng/ml (fold-induction) in [5] was determined as 20.5. In experiment [6], this molecule came in with an ERK-Map kinase activity in Wky12-22 cells, EC50 of 0.5 nM. In experiment [7], this molecule showed a Bmax (fmol bound/10^6 cells) of 1020 and a Kd of 31 nM. Also, in experiment [8], the Bmax (fmol bound/10^6 cells) worked out at 350 and the Kd worked out at 1.5 nM.

B3: Heated Zven1 (Baculovirus-expressed Zven1 heated at 56° C. for 30 minutes) (ligand)
chain: B2 chain
For B3, in experiment [5], the SRE luciferase fold-induction at 1 ng/ml (fold-induction) is 1.8, the SRE luciferase fold-induction at 3.2 ng/ml (fold-induction) is 3.7, the SRE luciferase fold-induction at 10 ng/ml (fold-induction) came out at 10 and the SRE luciferase fold-induction at 32 ng/ml (fold-induction) is 14.8. For the same molecule, the SRE luciferase fold-induction at 100 ng/ml (fold-induction) in experiment [5] was 18.6.

B4: Zven2 ("endocrine-gland-derived vascular endothelial growth factor") protein purchased from Peprotech, Inc. (ligand)
chain: AVITGACERDVQCGAGTCCAISLWLRGLRMCTPLGREGEECHPGSHKVPFFRKRKHHTCPCLPNLLCSRFPDGRYRCSMDLKNINF
Consider B4, for which, in experiment [5], the SRE luciferase fold-induction at 1 ng/ml (fold-induction) is 1.2, the SRE luciferase fold-induction at 3.2 ng/ml (fold-induction) was determined as 1.6, the SRE luciferase fold-induction at 10 ng/ml (fold-induction) worked out at 2.5 and the SRE luciferase fold-induction at 32 ng/ml (fold-induction) came out at 5.8. Besides, in experiment [5], the SRE luciferase fold-induction at 100 ng/ml (fold-induction) came to 11.4, the SRE luciferase fold-induction at 320 ng/ml (fold-induction) is 24.4 and the SRE luciferase fold-induction at 1000 ng/ml (fold-induction) amounted to 20. Further, in experiment [9], the SRE luciferase fold-induction at 1 ng/ml (fold-induction) turned out to be 1.1, the SRE luciferase fold-induction at 3.2 ng/ml (fold-induction) is 1.3, the SRE luciferase fold-induction at 10 ng/ml (fold-induction) was 1.8 and the SRE luciferase fold-induction at 32 ng/ml (fold-induction) worked out at 2.8. In addition, in experiment [9], the SRE luciferase fold-induction at 100 ng/ml (fold-induction) turned out to be 5.6, the SRE luciferase fold-induction at 320 ng/ml (fold-induction) came out at 8.3 and the SRE luciferase fold-induction at 1000 ng/ml (fold-induction) was 8.4. For the same molecule, in [10], the SRE luciferase fold-induction at 1 ng/ml (fold-induction) worked out at 0.95, the SRE luciferase fold-induction at 3.2 ng/ml (fold-induction) worked out at 1.3, the SRE luciferase fold-induction at 10 ng/ml (fold-induction) is 2.6 and the SRE luciferase fold-induction at 32 ng/ml (fold-induction) is 7.2. Also, in experiment [10], the SRE luciferase fold-induction at 320 ng/ml (fold-induction) is 20.5 and the SRE luciferase fold-induction at 1000 ng/ml (fold-induction) came out at 15. Moreover, in [11], the SRE luciferase fold-induction at 3.2 ng/ml (fold-induction) came out at 1.4, the SRE luciferase fold-induction at 32 ng/ml (fold-induction) worked out at 2.7, the SRE luciferase fold-induction at 100 ng/ml (fold-induction) was 4.1 and the SRE luciferase fold-induction at 320 ng/ml (fold-induction) came out at 5.8. In addition, the SRE luciferase fold-induction at 1000 ng/ml (fold-induction) in [11] worked out at 6.1.
